Reference: patent US20200085917A1

Key:
Test in all cases: GST pull-down, LC-MS/MS
[1] = target: Acad8_IPI:IPI00274222.2 (mouse) (UniProt Q9D7B6)
[2] = target: Actg1_IPI:IPI00136929.1 (mouse) (UniProt P63260)
[3] = target: Afg3l2_IPI:IPI00170357.5 (mouse) (UniProt Q8JZQ2)
[4] = target: Atp1a1_IPI:IPI00311682.5 (mouse) (UniProt Q8VDN2)
[5] = target: Cisd1_IPI:IPI00128346.1 (mouse) (UniProt Q91WS0)
[6] = target: Dnajc19_IPI:IPI00111111.5 (mouse) (UniProt Q9CQV7)
[7] = target: Etfa_IPI:IPI00116753.4 (mouse) (UniProt Q99LC5)
[8] = target: Fabp5_IPI:IPI00114162.3 (mouse) (UniProt Q05816)
[9] = target: Fahd1_IPI:IPI00468850.1 (mouse) (UniProt Q8R0F8)
[10] = target: Fis1_IPI:IPI00132217.1 (mouse) (UniProt Q9CQ92)
[11] = target: Gstk1_IPI:IPI00121051.3 (mouse) (UniProt Q9DCM2)
[12] = target: Hagh_IPI:IPI00115866.2 (mouse) (UniProt Q99KB8)
[13] = target: Hint2_IPI:IPI00133034.3 (mouse) (UniProt Q9D0S9)
[14] = target: Hspa5_IPI:IPI00319992.1 (mouse) (UniProt P20029)
[15] = target: Idh3g_IPI:IPI00109169.1 (mouse) (UniProt P70404)
[16] = target: Iscu_IPI:IPI00110578.1 (mouse) (UniProt Q9D7P6)
[17] = target: LOC100044454_IPI:IPI00135284.1 (mouse)
[18] = target: Mrpl43_IPI:IPI00278781.1 (mouse) (UniProt Q99N89)
[19] = target: Mtch1_IPI:IPI00137173.1 (mouse) (UniProt Q791T5)
[20] = target: Ndufa11_IPI:IPI00318645.6 (mouse) (UniProt Q9D8B4)
[21] = target: Nsf_IPI:IPI00656325.2 (mouse) (UniProt P46460)
[22] = target: Nubpl_IPI:IPI00317709.1 (mouse) (UniProt Q9CWD8)
[23] = target: Pnkd_IPI:IPI00187405.4 (mouse) (UniProt Q69ZP3)
[24] = target: Pptc7_IPI:IPI00421081.3 (mouse) (UniProt Q6NVE9)
[25] = target: Rdh13_IPI:IPI00229040.1 (mouse) (UniProt Q8CEE7)
[26] = target: Rdh14_IPI:IPI00112377.1 (mouse) (UniProt Q9ERI6)
[27] = target: Sfxn1_IPI:IPI00115454.3 (mouse) (UniProt Q99JR1)
[28] = target: Slc25a10_IPI:IPI00317074.3 (mouse) (UniProt Q9QZD8)
[29] = target: Slc25a19_IPI:IPI00118826.1 (mouse) (UniProt Q9DAM5)
[30] = target: Slc6a11_IPI:IPI00136867.1 (mouse) (UniProt P31650)
[31] = target: Stoml2_IPI:IPI00115117.1 (mouse) (UniProt Q99JB2)
[32] = target: Tim23 (endogenous, mouse forebrain mitochondria) (mouse) (UniProt Q9WTQ8)
[33] = target: Ywhaz_IPI:IPI00116498.1 (mouse) (UniProt P63101)
Chain of Ywhaz_IPI:IPI00116498.1 (mouse) (P63101 whole entry): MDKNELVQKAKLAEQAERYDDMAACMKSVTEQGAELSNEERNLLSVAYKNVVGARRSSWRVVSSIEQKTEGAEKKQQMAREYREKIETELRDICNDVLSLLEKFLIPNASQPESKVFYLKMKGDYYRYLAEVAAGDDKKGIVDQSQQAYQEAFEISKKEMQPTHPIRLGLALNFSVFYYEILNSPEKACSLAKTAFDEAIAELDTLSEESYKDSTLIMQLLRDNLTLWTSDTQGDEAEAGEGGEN

Chain of GST-Httex1-97Q (P08515 1-218, tags or fused parts left off): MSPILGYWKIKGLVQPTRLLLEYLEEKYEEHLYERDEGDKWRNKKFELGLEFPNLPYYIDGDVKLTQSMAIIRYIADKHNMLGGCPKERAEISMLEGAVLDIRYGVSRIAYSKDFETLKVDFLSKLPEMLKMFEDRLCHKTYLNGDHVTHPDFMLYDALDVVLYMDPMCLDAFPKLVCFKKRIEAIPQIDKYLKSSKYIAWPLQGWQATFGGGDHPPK
Chain of Fahd1_IPI:IPI00468850.1 (mouse) (Q8R0F8 25-221 limits assumed): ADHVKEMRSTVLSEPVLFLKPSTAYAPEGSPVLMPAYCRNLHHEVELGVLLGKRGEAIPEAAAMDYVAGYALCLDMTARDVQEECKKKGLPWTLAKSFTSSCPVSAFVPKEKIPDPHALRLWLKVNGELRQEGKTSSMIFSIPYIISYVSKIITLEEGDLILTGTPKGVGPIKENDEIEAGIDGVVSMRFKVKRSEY
Chain of Nsf_IPI:IPI00656325.2 (mouse) (P46460 whole entry): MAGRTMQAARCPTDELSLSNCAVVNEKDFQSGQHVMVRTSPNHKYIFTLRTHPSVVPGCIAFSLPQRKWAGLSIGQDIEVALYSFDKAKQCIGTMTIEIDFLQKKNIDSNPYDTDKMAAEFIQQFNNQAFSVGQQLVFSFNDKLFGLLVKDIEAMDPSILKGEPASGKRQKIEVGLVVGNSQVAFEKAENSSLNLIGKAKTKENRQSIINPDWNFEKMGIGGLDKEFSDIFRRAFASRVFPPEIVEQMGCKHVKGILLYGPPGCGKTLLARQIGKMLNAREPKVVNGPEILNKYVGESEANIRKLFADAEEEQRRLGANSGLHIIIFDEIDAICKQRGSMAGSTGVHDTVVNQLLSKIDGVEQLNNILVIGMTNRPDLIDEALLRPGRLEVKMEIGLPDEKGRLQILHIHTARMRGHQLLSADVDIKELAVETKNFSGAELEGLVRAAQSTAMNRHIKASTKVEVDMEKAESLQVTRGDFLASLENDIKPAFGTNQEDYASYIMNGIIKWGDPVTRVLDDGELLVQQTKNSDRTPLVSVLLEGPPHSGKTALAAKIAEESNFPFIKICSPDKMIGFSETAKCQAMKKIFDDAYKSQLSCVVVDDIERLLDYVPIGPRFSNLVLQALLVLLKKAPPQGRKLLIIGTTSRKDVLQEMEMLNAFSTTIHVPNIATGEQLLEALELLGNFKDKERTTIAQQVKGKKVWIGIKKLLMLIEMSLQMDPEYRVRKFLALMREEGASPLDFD
Chain of Ndufa11_IPI:IPI00318645.6 (mouse) (Q9D8B4 whole entry): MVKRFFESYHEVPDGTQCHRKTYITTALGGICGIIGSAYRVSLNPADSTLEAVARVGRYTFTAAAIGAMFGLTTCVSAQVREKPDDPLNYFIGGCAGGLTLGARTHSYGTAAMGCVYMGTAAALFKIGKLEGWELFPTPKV
Chain of Fabp5_IPI:IPI00114162.3 (mouse) (Q05816 2-135 limits assumed): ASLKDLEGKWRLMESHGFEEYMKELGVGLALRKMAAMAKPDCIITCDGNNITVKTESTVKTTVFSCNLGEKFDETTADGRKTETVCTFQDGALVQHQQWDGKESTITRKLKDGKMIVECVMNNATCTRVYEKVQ
Chain of Slc6a11_IPI:IPI00136867.1 (mouse) (P31650 whole entry): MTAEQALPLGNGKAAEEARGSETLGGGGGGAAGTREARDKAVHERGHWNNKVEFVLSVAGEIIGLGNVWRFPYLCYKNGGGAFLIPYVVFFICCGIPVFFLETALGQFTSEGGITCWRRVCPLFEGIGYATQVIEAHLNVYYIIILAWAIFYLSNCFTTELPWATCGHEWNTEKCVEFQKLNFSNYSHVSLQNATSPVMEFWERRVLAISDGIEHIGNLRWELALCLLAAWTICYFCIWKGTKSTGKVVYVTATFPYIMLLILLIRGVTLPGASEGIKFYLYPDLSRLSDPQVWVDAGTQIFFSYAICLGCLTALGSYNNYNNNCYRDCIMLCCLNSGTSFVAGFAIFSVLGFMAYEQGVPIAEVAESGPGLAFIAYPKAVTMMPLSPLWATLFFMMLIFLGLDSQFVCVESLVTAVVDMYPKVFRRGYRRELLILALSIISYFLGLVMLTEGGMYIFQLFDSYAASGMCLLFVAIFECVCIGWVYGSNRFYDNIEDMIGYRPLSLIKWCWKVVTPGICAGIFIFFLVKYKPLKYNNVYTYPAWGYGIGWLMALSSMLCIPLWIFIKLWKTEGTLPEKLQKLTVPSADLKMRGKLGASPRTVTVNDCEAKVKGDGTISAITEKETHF
Chain of Hint2_IPI:IPI00133034.3 (mouse) (Q9D0S9 18-163 limits assumed): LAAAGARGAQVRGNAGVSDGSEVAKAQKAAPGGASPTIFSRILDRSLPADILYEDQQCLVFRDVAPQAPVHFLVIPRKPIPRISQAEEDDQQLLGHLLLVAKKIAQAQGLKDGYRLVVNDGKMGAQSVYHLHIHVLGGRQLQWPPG
Chain of Acad8_IPI:IPI00274222.2 (mouse) (Q9D7B6 21-413 limits assumed): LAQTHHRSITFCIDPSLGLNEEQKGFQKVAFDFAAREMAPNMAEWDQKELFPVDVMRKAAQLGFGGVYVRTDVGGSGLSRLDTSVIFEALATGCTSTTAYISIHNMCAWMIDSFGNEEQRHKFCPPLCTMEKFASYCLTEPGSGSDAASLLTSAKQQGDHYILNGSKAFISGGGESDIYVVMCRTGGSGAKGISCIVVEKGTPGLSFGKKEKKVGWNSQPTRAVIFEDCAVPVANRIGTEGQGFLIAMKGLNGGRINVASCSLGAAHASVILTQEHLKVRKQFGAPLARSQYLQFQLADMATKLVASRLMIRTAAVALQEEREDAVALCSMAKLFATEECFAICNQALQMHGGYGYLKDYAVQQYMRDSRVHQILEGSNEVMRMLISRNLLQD
Chain of Dnajc19_IPI:IPI00111111.5 (mouse) (Q9CQV7 2-116 limits assumed): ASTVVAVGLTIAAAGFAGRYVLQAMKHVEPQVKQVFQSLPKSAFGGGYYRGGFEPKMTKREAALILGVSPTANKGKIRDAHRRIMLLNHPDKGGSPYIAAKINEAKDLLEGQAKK
Chain of Iscu_IPI:IPI00110578.1 (mouse) (Q9D7P6 36-168 limits assumed): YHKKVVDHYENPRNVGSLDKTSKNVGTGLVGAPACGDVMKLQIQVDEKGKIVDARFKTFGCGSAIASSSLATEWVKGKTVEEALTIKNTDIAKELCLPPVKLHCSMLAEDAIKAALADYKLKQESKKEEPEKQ
Chain of Cisd1_IPI:IPI00128346.1 (mouse) (Q91WS0 whole entry): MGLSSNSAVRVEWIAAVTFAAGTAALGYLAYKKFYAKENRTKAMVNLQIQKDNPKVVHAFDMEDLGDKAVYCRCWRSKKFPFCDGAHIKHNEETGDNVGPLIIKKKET
Chain of Rdh13_IPI:IPI00229040.1 (mouse) (Q8CEE7 2-334 limits assumed): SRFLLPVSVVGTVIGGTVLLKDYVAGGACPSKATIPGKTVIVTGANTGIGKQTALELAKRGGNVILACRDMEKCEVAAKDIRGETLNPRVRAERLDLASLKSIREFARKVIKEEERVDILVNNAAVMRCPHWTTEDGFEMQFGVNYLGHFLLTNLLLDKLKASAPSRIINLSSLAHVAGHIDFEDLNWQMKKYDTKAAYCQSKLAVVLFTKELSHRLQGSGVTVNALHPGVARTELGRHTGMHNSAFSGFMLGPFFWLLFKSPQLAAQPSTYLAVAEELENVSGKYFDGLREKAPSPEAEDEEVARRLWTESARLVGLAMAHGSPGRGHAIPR
Chain of Mrpl43_IPI:IPI00278781.1 (mouse) (Q99N89 whole entry): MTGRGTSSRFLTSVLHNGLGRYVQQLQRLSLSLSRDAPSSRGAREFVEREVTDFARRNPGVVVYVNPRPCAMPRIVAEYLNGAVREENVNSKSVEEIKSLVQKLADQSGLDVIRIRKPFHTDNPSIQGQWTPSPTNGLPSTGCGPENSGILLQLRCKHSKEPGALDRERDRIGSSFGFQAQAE
Chain of Mtch1_IPI:IPI00137173.1 (mouse) (Q791T5 whole entry): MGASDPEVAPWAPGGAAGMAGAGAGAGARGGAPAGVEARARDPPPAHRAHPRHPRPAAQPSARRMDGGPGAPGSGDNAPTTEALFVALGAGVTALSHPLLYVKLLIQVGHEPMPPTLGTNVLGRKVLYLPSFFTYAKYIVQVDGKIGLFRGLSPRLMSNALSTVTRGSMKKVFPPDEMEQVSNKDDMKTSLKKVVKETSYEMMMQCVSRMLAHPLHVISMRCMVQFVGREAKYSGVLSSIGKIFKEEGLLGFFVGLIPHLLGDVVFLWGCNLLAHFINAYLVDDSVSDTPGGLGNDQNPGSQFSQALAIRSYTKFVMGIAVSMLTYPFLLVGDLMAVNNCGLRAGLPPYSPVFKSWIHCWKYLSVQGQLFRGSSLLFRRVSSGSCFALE
Chain of Sfxn1_IPI:IPI00115454.3 (mouse) (Q99JR1 2-322 limits assumed): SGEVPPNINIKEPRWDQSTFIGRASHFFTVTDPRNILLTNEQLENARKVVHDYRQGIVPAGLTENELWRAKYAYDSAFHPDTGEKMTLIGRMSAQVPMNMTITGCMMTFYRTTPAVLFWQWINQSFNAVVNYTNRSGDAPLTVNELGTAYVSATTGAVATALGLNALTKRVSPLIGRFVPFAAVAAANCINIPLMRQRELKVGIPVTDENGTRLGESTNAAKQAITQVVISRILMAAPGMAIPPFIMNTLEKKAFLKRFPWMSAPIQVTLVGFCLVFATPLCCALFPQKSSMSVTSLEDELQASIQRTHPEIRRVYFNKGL
Chain of Nubpl_IPI:IPI00317709.1 (mouse) (Q9CWD8 39-319 limits assumed): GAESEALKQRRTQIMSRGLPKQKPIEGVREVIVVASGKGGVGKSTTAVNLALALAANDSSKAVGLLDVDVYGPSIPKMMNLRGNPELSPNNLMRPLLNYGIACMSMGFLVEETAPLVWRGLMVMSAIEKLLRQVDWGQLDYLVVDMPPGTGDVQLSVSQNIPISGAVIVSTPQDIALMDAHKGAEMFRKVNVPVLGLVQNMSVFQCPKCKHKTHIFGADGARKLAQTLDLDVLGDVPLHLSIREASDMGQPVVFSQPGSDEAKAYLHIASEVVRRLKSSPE

No. of total peptides [1]: 1 peptides
No. of unique peptides [1]: 1 peptides
No. of total peptides [2]: 1 peptides
No. of unique peptides [2]: 1 peptides
No. of total peptides [3]: 5 peptides
No. of unique peptides [3]: 4 peptides
No. of total peptides [4]: 1 peptides
No. of unique peptides [4]: 1 peptides
No. of total peptides [5]: 3 peptides
No. of unique peptides [5]: 2 peptides
No. of total peptides [6]: 1 peptides
No. of unique peptides [6]: 1 peptides
No. of total peptides [7]: 4 peptides
No. of unique peptides [7]: 3 peptides
No. of total peptides [8]: 1 peptides
No. of unique peptides [8]: 1 peptides
No. of total peptides [9]: 1 peptides
No. of unique peptides [9]: 1 peptides
No. of total peptides [10]: 2 peptides
No. of unique peptides [10]: 2 peptides
No. of total peptides [11]: 1 peptides
No. of unique peptides [11]: 1 peptides
No. of total peptides [12]: 2 peptides
No. of unique peptides [12]: 2 peptides
No. of total peptides [13]: 1 peptides
No. of unique peptides [13]: 1 peptides
No. of total peptides [14]: 1 peptides
No. of unique peptides [14]: 1 peptides
No. of total peptides [15]: 2 peptides
No. of unique peptides [15]: 2 peptides
No. of total peptides [16]: 2 peptides
No. of unique peptides [16]: 2 peptides
No. of total peptides [17]: 3 peptides
No. of unique peptides [17]: 3 peptides
No. of total peptides [18]: 1 peptides
No. of unique peptides [18]: 1 peptides
No. of total peptides [19]: 3 peptides
No. of unique peptides [19]: 3 peptides
No. of total peptides [20]: 1 peptides
No. of unique peptides [20]: 1 peptides
No. of total peptides [21]: 1 peptides
No. of unique peptides [21]: 1 peptides
No. of total peptides [22]: 1 peptides
No. of unique peptides [22]: 1 peptides
No. of total peptides [23]: 1 peptides
No. of unique peptides [23]: 1 peptides
No. of total peptides [24]: 1 peptides
No. of unique peptides [24]: 1 peptides
No. of total peptides [25]: 1 peptides
No. of unique peptides [25]: 1 peptides
No. of total peptides [26]: 1 peptides
No. of unique peptides [26]: 1 peptides
No. of total peptides [27]: 2 peptides
No. of unique peptides [27]: 2 peptides
No. of total peptides [28]: 1 peptides
No. of unique peptides [28]: 1 peptides
No. of total peptides [29]: 1 peptides
No. of unique peptides [29]: 1 peptides
No. of total peptides [30]: 1 peptides
No. of unique peptides [30]: 1 peptides
No. of total peptides [31]: 1 peptides
No. of unique peptides [31]: 1 peptides
No. of total peptides [32]: 1 peptides
No. of unique peptides [32]: 1 peptides
No. of total peptides [33]: 1 peptides
No. of unique peptides [33]: 1 peptides
Substance: GST-Httex1-97Q (from UniProt P08515 1-218; P42858 1-88)
